Article PMC3672139, “Aptamer Selection Based on G4-Forming Promoter Region”

Tests used:
VEGF165, human = VEGF165, human (Homo sapiens (Human), UniProt P15692 27-191); experiment: SPR; 10 mM Tris-HCl pH 7.4, 150 mM NaCl, 5 mM KCl, 25 C; protein amine-coupled on CM5; settings: chain copies: 2
PDGF-AA, human = PDGF-AA, human (Homo sapiens (Human), UniProt P04085 87-211); experiment: as above; settings: chain copies: 2
RB1, human = target: T1, RB1, human (Homo sapiens (Human), UniProt P06400); experiment: SPR; 10 mM Tris-HCl pH 7.4, 650 mM NaCl, 5 mM KCl, 25 C; DNA on SA chip, Scatchard; settings: label: 5'-biotin
T1 sequence: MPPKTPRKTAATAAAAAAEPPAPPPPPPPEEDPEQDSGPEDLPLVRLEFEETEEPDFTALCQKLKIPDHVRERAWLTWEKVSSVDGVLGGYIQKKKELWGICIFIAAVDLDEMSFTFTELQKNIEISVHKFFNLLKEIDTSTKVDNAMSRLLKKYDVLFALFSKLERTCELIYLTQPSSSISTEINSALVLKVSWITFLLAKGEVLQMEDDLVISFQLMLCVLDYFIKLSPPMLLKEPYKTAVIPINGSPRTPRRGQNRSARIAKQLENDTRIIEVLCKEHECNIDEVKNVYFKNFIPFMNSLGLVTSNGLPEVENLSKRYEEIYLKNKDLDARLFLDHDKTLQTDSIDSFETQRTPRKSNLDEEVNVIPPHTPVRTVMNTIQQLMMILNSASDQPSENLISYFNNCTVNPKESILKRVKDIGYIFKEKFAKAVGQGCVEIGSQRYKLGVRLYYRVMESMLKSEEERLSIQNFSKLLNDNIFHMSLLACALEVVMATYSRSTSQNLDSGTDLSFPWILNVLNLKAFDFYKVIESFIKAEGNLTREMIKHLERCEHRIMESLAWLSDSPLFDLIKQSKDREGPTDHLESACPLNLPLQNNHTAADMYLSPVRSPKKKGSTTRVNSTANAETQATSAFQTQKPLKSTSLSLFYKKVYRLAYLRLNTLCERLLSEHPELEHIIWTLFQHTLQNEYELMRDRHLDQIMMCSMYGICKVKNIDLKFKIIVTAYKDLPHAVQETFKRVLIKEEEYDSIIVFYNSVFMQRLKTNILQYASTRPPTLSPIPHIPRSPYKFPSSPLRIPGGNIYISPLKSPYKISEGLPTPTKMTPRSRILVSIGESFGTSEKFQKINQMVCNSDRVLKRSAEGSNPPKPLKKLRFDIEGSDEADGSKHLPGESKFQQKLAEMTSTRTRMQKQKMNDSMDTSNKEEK

VEGF165 = VEGF165 (human, UniProt P15692-4 27-191); experiment: SPR; 10 mM Tris-HCl, 150 mM NaCl, 5 mM KCl, pH 7.4; EMSA room temperature 30 min, 12% PAGE in TBE; SPR 25 C (RB1 SPR with 650 mM NaCl); settings: protein: recombinant, chain copies: 2
Chain of VEGF165 (P15692 other isoform, or with tags, fused parts or gaps): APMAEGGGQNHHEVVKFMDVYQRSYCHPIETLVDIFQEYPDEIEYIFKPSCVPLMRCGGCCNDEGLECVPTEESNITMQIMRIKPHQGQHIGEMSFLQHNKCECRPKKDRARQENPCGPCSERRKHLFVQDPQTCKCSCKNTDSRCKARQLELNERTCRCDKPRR

PDGF-AA = PDGF-AA (human, UniProt P04085 87-211); experiment: as above; settings: protein: recombinant, chain copies: 2
VEGF121 = VEGF121 (human, UniProt P15692-9 27-147); experiment: EMSA; 10 mM Tris-HCl, 150 mM NaCl, 5 mM KCl, pH 7.4; EMSA room temperature 30 min, 12% PAGE in TBE; SPR 25 C (RB1 SPR with 650 mM NaCl); settings: protein: recombinant, chain copies: 2
Chain of VEGF121 (P15692 other isoform, or with tags, fused parts or gaps): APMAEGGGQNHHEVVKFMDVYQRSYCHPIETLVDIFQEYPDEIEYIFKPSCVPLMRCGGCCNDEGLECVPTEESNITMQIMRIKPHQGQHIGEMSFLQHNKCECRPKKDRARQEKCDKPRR

VEGF121, human = VEGF121, human (Homo sapiens (Human), UniProt P15692 27-147); experiment: EMSA; 2.6 uM VEGF121; settings: chain copies: 2
[1] = target: c-KIT intracellular domain (human, UniProt P10721 544-976); experiment: EMSA; 10 mM Tris-HCl, 150 mM NaCl, 5 mM KCl, pH 7.4; EMSA room temperature 30 min, 12% PAGE in TBE; SPR 25 C (RB1 SPR with 650 mM NaCl); settings: protein: recombinant; label: 5'-FITC; G4
Chain of c-KIT intracellular domain (P10721 544-976): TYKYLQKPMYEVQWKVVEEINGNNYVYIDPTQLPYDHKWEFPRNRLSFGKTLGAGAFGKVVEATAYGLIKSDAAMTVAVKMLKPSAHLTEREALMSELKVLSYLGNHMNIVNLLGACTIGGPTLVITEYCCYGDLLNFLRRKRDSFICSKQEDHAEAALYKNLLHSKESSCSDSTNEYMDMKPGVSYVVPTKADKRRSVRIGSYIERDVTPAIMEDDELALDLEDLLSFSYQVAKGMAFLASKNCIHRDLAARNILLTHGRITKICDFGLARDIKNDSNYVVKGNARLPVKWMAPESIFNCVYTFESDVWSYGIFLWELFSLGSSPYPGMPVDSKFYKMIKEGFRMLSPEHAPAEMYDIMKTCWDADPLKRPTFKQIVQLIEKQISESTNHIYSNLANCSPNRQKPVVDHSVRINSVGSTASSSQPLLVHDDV

[2] = label: none (SPR), not expected to form G4
[3] = label: 5'-FITC (gel shift), none (SPR), parallel G4
[4] = label: 5'-TAMRA (gel shift), parallel G4, monomeric and multimeric bands
[5] = label: 5'-TAMRA (gel shift), 5'-biotin (SPR to RB1), antiparallel G4

Binder: GGTTGGTGTGGTTGG (structured_DNA, G-quadruplex) [TBA]
- binding result (VEGF165, human): no binding
- binding result (PDGF-AA, human): no binding

Binder: CGTTTTGTTTTGGGCGGC (ssDNA) [RB1 G4 mutant]
- binding result (RB1, human): no binding

Binder: GTTTCTTTCCGGTTTCGTTTTCCCGGCGGGGCGG (ssDNA) [VEGFA G4 Mut.]
- binding result (VEGF165; [2]): no binding

Binder: GGAGGCTTTTTTTTTTTTTCTTTTTCTTTTTCTTTTTATTTTCGCGGC (ssDNA) [PDGFA G4 Mut.]
- binding result (PDGF-AA; [2]): no binding

Binder: GGGGCGGGCCGGGGGCGGGGTCCCGGCGGGGCGG (structured_DNA)
- Kd (VEGF165; [3]): 170 nM
- binding result (PDGF-AA; [3]): no binding
- binding result (VEGF121; [3]): no binding

Binder: GGGGCGGGCCGGGGGCGGGGTCCCGGCGGGGCGG (structured_DNA, G-quadruplex (promoter-derived))
- binding result (VEGF121, human; label: FITC): no binding
- binding result (PDGF-AA, human): no binding

Binder: CGGGGGGTTTTGGGCGGC (structured_DNA, G-quadruplex (promoter-derived))
- binding result (VEGF121, human; label: TAMRA): no binding
- Kd (VEGF165, human): 300 nM
- binding result (PDGF-AA, human): no binding

Binder: GGAGGCGGGGGGGGGGGGGCGGGGGCGGGGGCGGGGGAGGGGCGCGGC (structured_DNA)
- Kd (VEGF165; [4]): 10 nM
- binding result (VEGF121; [4]): no binding

Binder: GGAGGCGGGGGGGGGGGGGCGGGGGCGGGGGCGGGGGAGGGGCGCGGC (structured_DNA, G-quadruplex (promoter-derived))
- binding result (VEGF121, human; label: TAMRA): no binding
- Kd (VEGF165, human): 10 nM

Binder: AGGGAGGGCGCTGGGAGGAGGG (structured_DNA) [c-KIT G4-2]
- binding result [1]: no binding

Binder: CGGGGGGTTTTGGGCGGC (structured_DNA)
- Kd (VEGF165; [5]): 300 nM
- binding result (PDGF-AA; [5]): no binding
- binding result (VEGF121; [5]): no binding

Binder: CGGGCGGGCGCGAGGGAGGGG (structured_DNA) [c-KIT G4-1]
- binding result [1]: no binding

Binder: GGTTGGTGTGGTTGG (structured_DNA) [TBA (15-mer thrombin-binding aptamer)]
- binding result (VEGF165; label: none, G4): no binding
- binding result (PDGF-AA; label: none, G4): no binding
